Key:
HLA-A*03:01 = assay: IEDB peptide-MHC binding, purified MHC/direct/fluorescence; filed as Kd, often an IC50 or EC50 that approximates it; ≥ and ≤ were set here for values at or beyond the usual limits of such assays; details: source organism: Entamoeba histolytica HM-1:IMSS
HLA-A*02:03 = assay: as above; details: source organism: Entamoeba histolytica HM-1:IMSS
HLA-A*26:01 [1] = assay: as above; details: source organism: Entamoeba histolytica HM-1:IMSS
HLA-B*46:01 [2] = assay: as above
HLA-A*02:19 = assay: as above; details: source organism: Entamoeba histolytica HM-1:IMSS
HLA-B*27:03 = assay: as above; details: source organism: Entamoeba histolytica HM-1:IMSS
HLA-B*39:01 = assay: as above; details: source organism: Entamoeba histolytica HM-1:IMSS
HLA-B*57:01 = assay: as above; details: source organism: Entamoeba histolytica HM-1:IMSS
HLA-A*02:16 = assay: as above; details: source organism: Entamoeba histolytica HM-1:IMSS
HLA-A*68:02 = assay: as above; details: source organism: Entamoeba histolytica HM-1:IMSS
HLA-A*02:01 = assay: as above; details: source organism: Entamoeba histolytica HM-1:IMSS
HLA-B*51:01 = assay: as above; details: source organism: Entamoeba histolytica HM-1:IMSS
HLA-A*02:12 = assay: as above; details: source organism: Entamoeba histolytica HM-1:IMSS
HLA-B*83:01 = assay: IEDB peptide-MHC binding, purified MHC/competitive/fluorescence; filed as Kd, often an IC50 or EC50 that approximates it; ≥ and ≤ were set here for values at or beyond the usual limits of such assays; details: source organism: Mycobacterium tuberculosis str. Haarlem
HLA-B*46:01 [3] = assay: as above; details: source organism: Mycobacterium tuberculosis str. Haarlem
HLA-B*45:06 = assay: as above; details: source organism: Mycobacterium tuberculosis str. Haarlem
HLA-B*15:42 = assay: as above; details: source organism: Mycobacterium tuberculosis str. Haarlem
HLA-C*03:03 = assay: IEDB peptide-MHC binding, purified MHC/direct/fluorescence; filed as Kd, often an IC50 or EC50 that approximates it; ≥ and ≤ were set here for values at or beyond the usual limits of such assays; details: source organism: Mycobacterium tuberculosis str. Haarlem
HLA-C*05:01 = assay: as above; details: source organism: Mycobacterium tuberculosis str. Haarlem
HLA-A*26:01 [4] = assay: IEDB peptide-MHC binding, purified MHC/competitive/radioactivity; filed as Kd, often an IC50 or EC50 that approximates it; ≥ and ≤ were set here for values at or beyond the usual limits of such assays; details: source organism: Dengue virus 1 Brazil/97-11/1997
HLA-C*14:02 = assay: IEDB peptide-MHC binding, purified MHC/direct/fluorescence; filed as Kd, often an IC50 or EC50 that approximates it; ≥ and ≤ were set here for values at or beyond the usual limits of such assays; details: source organism: dengue virus type 1
HLA-C*15:02 = assay: as above; details: source organism: dengue virus type 1
HLA-B*15:02 = assay: as above; details: source organism: dengue virus type 4

VKINIFPLY
Kd (HLA-A*03:01): ≥ 20 µM
Kd (HLA-A*02:03): ≥ 20 µM
Kd (HLA-A*26:01 [1]): ≥ 20 µM
Kd (HLA-B*46:01 [2]; source organism: Entamoeba histolytica HM-1:IMSS): ≥ 20 µM
Kd (HLA-A*02:19): ≥ 20 µM
Kd (HLA-B*27:03): ≥ 20 µM
Kd (HLA-B*39:01): ≥ 20 µM
Kd (HLA-B*57:01): ≥ 20 µM
Kd (HLA-A*02:16): ≥ 20 µM
Kd (HLA-A*68:02): ≥ 20 µM
Kd (HLA-A*02:01): ≥ 20 µM
Kd (HLA-B*51:01): ≥ 20 µM
Kd (HLA-A*02:12): ≥ 20 µM

YAREAGIAM
Kd (HLA-B*83:01): ≥ 5 µM
Kd (HLA-B*46:01 [3]): ≥ 20 µM
Kd (HLA-B*45:06): ≥ 5 µM
Kd (HLA-B*15:42): ≥ 5 µM
Kd (HLA-C*03:03): ≥ 20 µM
Kd (HLA-C*05:01): ≥ 20 µM

YLAGAGLAF
Kd (HLA-A*26:01 [4]): 0.401 µM
Kd (HLA-B*46:01 [2]; source organism: Dengue virus 1 Singapore/S275/1990): 0.118 µM
Kd (HLA-C*14:02): 0.046 µM
Kd (HLA-C*15:02): ≥ 20 µM
Kd (HLA-B*15:02): 0.003 µM
